# Assay results as given in patent US20110263454A1, “Methods of Identifying Functional Characteristics of Promoters, Transcription Modifying Proteins and Transcription Modulating Agents” (Salk Institute for Biological Studies, priority 2008, published 2011).
# Key:
# SREBP1c promoter = assay: NHR-promoter luciferase screen, SREBP1c promoter; type: cell-based, mouse; settings: for Luc. act., normalized to lacZ / Normalized Luc. act., normalized to control: SREBP1c promoter, HR component without or with ligand; for mSREBP1-c promoter reporter activity: transcription factor +/- ligand, control = 1.00
# Summary of the method: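 CV-1 cells co-transfected with 50 ng NHR (homodimer or NHR/RXR heterodimer), 100 ng promoter-luciferase and 50 ng LacZ. Luciferase read at 48 h, normalised to LacZ and to a no-NHR/no-ligand control.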
# mDio2 promoter = assay: NHR-promoter luciferase screen, mDio2 promoter; type: cell-based, mouse; settings: for Luc. act., normalized to lacZ / Normalized Luc. act., normalized to control: Dio2, HR component without or with its ligand; for mDio2 promoter reporter activity: transcription factor +/- ligand, control = 1.00
# Summary of the method: (§1)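 CV-1 cells were co-transfected with 50 ng NHR (homodimer or NHR/RXR heterodimer), 100 ng promoter-luciferase construct and 50 ng LacZ. Luciferase was normalized to LacZ and to a no-NHR/no-ligand control.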
# hTNFa promoter = assay: NHR-promoter luciferase screen, hTNFa promoter; type: cell-based, human; settings: for Luc. act., normalized to lacZ / Normalized Luc. act., normalized to control: TNFa promoter, HR component without or with ligand; for hTNFa promoter reporter activity: transcription factor +/- ligand, control = 1.00
# Summary of the method: as §1
# hPOMC promoter = assay: NHR-promoter luciferase screen, hPOMC promoter; type: cell-based, human; settings: for Luc. act., normalized to lacZ / Normalized Luc. act., normalized to control: hPOMC promoter, HR/ligand component; for hPOMC promoter reporter activity: transcription factor +/- ligand, control = 1.00
# Summary of the method: as §1
# hMyoD promoter = assay: NHR-promoter luciferase screen, hMyoD promoter; type: cell-based, human; settings: for Luc. act., normalized to lacZ / Normalized Luc. act., normalized to control: MyoD promoter reporter, co-transfected HR, without or with its ligand; for Normalized Luc. act., normalized to control: relative to control; for luciferase activity normalized to lacZ activity and to a control, hMyoD: hMyoD promoter-luciferase, CV-1 cells, NHR +/- ligand, control = 1.00
# Summary of the method: as §1
# mUCP1 promoter = assay: NHR-promoter luciferase screen, mUCP1 promoter; type: cell-based, mouse; settings: for Luc. act., normalized to lacZ / Normalized Luc. act., normalized to control: mUCP1 promoter reporter, co-transfected HR, with or without its ligand; for Normalized Luc. act., normalized to control: relative to control; for luciferase activity normalized to lacZ activity and to a control, mUCP!: mUCP! promoter-luciferase, CV-1 cells, NHR +/- ligand, control = 1.00
# Summary of the method: as §1
Molecule,"Luc. act., normalized to lacZ (SREBP1c promoter)","Normalized Luc. act., normalized to control (SREBP1c promoter)",mSREBP1-c promoter reporter activity (SREBP1c promoter),"Luc. act., normalized to lacZ (mDio2 promoter)","Normalized Luc. act., normalized to control (mDio2 promoter)",mDio2 promoter reporter activity (mDio2 promoter),"Luc. act., normalized to lacZ (hTNFa promoter)","Normalized Luc. act., normalized to control (hTNFa promoter)",hTNFa promoter reporter activity (hTNFa promoter),"Luc. act., normalized to lacZ (hPOMC promoter)","Normalized Luc. act., normalized to control (hPOMC promoter)",hPOMC promoter reporter activity (hPOMC promoter),"Luc. act., normalized to lacZ (hMyoD promoter)","Normalized Luc. act., normalized to control (hMyoD promoter)","luciferase activity normalized to lacZ activity and to a control, hMyoD (hMyoD promoter)","Luc. act., normalized to lacZ (mUCP1 promoter)","Normalized Luc. act., normalized to control (mUCP1 promoter)","luciferase activity normalized to lacZ activity and to a control, mUCP! (mUCP1 promoter)"
"SHP: Small Heterodimer Partner (NR0B2), cDNA driver (protein, UniProt Q15466 1-257, looked up) Nuclear receptor subfamily 0 …: MSTSQPGACPCQGAASRPAILYALLSSSLKAVPRPRSRCLCRQHRPVQLCAPHRTCREALDVLAKTVAFLRNLPSFWQLPPQDQRRLLQGCWGPLFLLGLAQDAVTFEVAEAPVPSILKKILLEEPSSSGGSGQLPDRPQPSLAAVQWLQCCLESFWSLELSPKEYACLKGTILFNPDVPGLQAASHIGHLQQEAHWVLCEVLEPWCPAAQGRLTRVLLTASTLKSIPTSLLGDLFFRPIIGDVDIAGLLGDMLLLR",350.6,1.1,1.09,18.4,1.2,1.17,914.4,0.9,0.93,1.9,0.4,0.43,54.0,0.9,0.85,4.1,0.9,0.93
"DAX-1: DAX1 (NR0B1), cDNA driver (protein, UniProt P51843 1-470, looked up) Nuclear receptor subfamily 0 …: MAGENHQWQGSILYNMLMSAKQTRAAPEAPETRLVDQCWGCSCGDEPGVGREGLLGGRNVALLYRCCFCGKDHPRQGSILYSMLTSAKQTYAAPKAPEATLGPCWGCSCGSDPGVGRAGLPGGRPVALLYRCCFCGEDHPRQGSILYSLLTSSKQTHVAPAAPEARPGGAWWDRSYFAQRPGGKEALPGGRATALLYRCCFCGEDHPQQGSTLYCVPTSTNQAQAAPEERPRAPWWDTSSGALRPVALKSPQVVCEAASAGLLKTLRFVKYLPCFQVLPLDQQLVLVRNCWASLLMLELAQDRLQFETVEVSEPSMLQKILTTRRRETGGNEPLPVPTLQHHLAPPAEARKVPSASQVQAIKCFLSKCWSLNISTKEYAYLKGTVLFNPDVPGLQCVKYIQGLQWGTQQILSEHTRMTHQGPHDRFIELNSTLFLLRFINANVIAELFFRPIIGTVSMDDMMLEMLCTKI",497.8,1.5,1.55,18.7,1.2,1.19,854.8,0.9,0.87,2.7,0.6,0.63,61.3,1.0,0.97,6.2,1.4,1.39
